Key:
[1] = adult males of approximately 75 kg, bolus injection; cited from earlier work
[2] = Gamma camera study of radio-labelled ANF in rabbits; assay type: in vivo, rabbit
Description: A gamma camera study was carried out using ^131 I-ANF in domestic rabbits. The animals were sedated using Nembutal and the ANF was injected via the marginal ear vein. Camera images were taken at 100,000 count intervals up to 2.5 hours post injection.
A subsequent study with ^123 I-ANF in New Zealand White rabbits was also carried out. The animals were sedated with Nembutal and ANF was injected via the marginal ear vein. Camera images were taken at 100,000 intervals up to 1.25 hours post injection.

[3] = Gamma camera imaging of radio-labelled ANF uptake in green vervet monkey; assay type: in vivo
Description: ANF 99-126, rat form: 5 μg) was labelled by the inventors with ^125 I (1 mCi, obtained from commercial sources) using the lactoperoxidase method. The labelled compound was purified on HPLC (C-18 μBondapak™ column) by known methods. 250 μCi of the ^125 I ANF was administered to a 7 kg male monkey of green vervet species, as an intravenous bolus, under pentobarbital anesthesia. Prior to the experiment, the monkey was kept in a single cage with free access to food and water. The animal was subjected to data acquisition for 60 minutes using, as the scintillation detector, a gamma camera attached to a computer. Images and computer data were acquired at 10 second intervals.
A 7 kg anesthetized monkey which had been previously dehydrated for 18 hours was injected with an intravenous bolus injection of 80 μCi of ^131 I-ANF. […] Serial images (0-5, 5-10, 10-20 min.) and time activity curves were done and analyzed of the following regions of interest: the lungs, the kidneys, the upper and lower abdomen. […]
Serial images (0-7, 7-13, 13-20, 20-26, 26-30 min.) and time-activity curves were obtained and analyzed of the regions of interest over the lungs, kidneys, upper and lower abdomen. […]
The maximum and minimum levels of radioactivity over the 3 hour test period are given in each case.

CC[C@H](C)[C@@H]1NC(=O)[C@H](CCCNC(=N)N)NC(=O)[C@H](CC(=O)O)NC(=O)[C@H](CCSC)NC(=O)[C@H](CCCNC(=N)N)NC(=O)CNC(=O)CNC(=O)[C@H](Cc2ccccc2)NC(=O)[C@@H](NC(=O)[C@H](CO)NC(=O)[C@H](CO)NC(=O)[C@H](CCCNC(=N)N)NC(=O)[C@H](CCCNC(=N)N)NC(=O)[C@H](CC(C)C)NC(=O)[C@@H](N)CO)CSSC[C@@H](C(=O)N[C@@H](CC(N)=O)C(=O)N[C@@H](CO)C(=O)N[C@@H](Cc2ccccc2)C(=O)N[C@@H](CCCNC(=N)N)C(=O)N[C@@H](Cc2ccc(O)cc2)C(=O)O)NC(=O)CNC(=O)[C@H](CC(C)C)NC(=O)CNC(=O)[C@H](CO)NC(=O)[C@H](CCC(N)=O)NC(=O)[C@H](C)NC(=O)CNC1=O [ANF, atrial natriuretic factor]
bolus dose giving a medically effective hypotensive effect [1]: greater than 50 μg

^131 I-ANF: human ANF (99-126) with methionine in position 110 labelled with ^131 I; in Example 7 rat or human ANF
most prominent organ ([2]; lung also visible): kidney was the most prominent organ
time of rapid accumulation in the kidney ([2]; post-injection, marginal ear vein, Nembutal sedation): 3 min
uptake of radio-label ([3]; 7 kg monkey dehydrated for 18 hours, 80 μCi intravenous bolus): rapid uptake of radio-label particularly by the kidneys and lungs
uptake of radio-label compared with dehydrated animal ([3]; 7 kg monkey hydrated with 120 cc saline, 65 μCi intravenous): lesser uptake of radio-label in both kidney and lung
